# Laboratory results: patent publication US20180207294A1, “NON-ALCOHOLIC FATTY LIVER REGULATING FACTOR 14-3-3 PROTEIN” (Korea University Research and Business Foundation, priority 2015, published 2018)
# Columns and labels:
# 14-3-3γ and PPARγ2 = molecular target: T1, 14-3-3γ and PPARγ2 (Homo sapiens, UniProt P37231); assay: Competitive GST-pull down assay, 14-3-3γ / PPARγ2 binding under 14-3-3β overexpression; conditions: as expression amount of 14-3-3β was increased (HA-14-3-3β DNA 2 and 4 μg); 10 μM pioglitazone; FIG. 5B
# T1 construct: expressed in transfected cells; host or cells: HEK-293T
# T1 sequence (P37231 1-505): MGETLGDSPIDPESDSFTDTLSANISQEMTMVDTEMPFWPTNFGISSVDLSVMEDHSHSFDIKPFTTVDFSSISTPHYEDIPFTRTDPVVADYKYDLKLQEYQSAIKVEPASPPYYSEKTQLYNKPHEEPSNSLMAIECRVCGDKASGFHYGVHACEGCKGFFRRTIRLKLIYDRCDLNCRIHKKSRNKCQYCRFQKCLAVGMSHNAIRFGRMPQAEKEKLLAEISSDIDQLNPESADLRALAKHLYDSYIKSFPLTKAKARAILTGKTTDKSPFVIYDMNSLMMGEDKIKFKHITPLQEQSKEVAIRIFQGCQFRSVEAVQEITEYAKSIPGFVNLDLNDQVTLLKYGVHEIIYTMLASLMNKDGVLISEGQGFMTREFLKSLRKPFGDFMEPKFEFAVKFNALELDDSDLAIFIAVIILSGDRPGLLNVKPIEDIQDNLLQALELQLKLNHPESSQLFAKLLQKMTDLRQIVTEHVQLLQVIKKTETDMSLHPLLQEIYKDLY
# T1 sequence (P31946 1-246 partner): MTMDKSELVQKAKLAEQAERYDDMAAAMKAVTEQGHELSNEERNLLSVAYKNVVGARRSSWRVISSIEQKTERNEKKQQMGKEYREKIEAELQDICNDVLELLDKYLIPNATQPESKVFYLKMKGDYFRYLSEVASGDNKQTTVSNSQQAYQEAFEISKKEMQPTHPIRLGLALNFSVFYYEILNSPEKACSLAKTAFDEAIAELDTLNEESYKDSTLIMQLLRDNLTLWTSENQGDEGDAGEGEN
# Description: (§1) From the previous experimental results, it was verified that 14-3-3β and 14-3-3γ were bound to the phosphorylated serine 273 residue of PPARγ2, and it was determined that the two proteins would competitively bind to the same residue. Thus, GST-pull down assay was carried out to verify competitive binding of 14-3-3β and 14-3-3γ with PPARγ2.
# (§2) HEK-293T cells were seeded in a 100 mm plate at a density of 2×10^6 cells per each well, and then transfected with mGST-PPARγ2DNA (4 μg), GFP-14-3-3β DNA (4 μg) or GFP-14-3-3γ DNA (4 μg), and HA-14-3-3β DNA (2 and 4 μg) or HA-14-3-3γ DNA (2 and 4 μg) using an E-fection plus reagent (Lugen). A ratio of DNA to the E-fection plus reagent was 1:2 and this method was performed according to a manufacturer's manual. After transfection, the corresponding cells were treated with 10 μM of pioglitazone (Pio, Santa Cruz) for 24 hours, washed with ice-cold PBS, and lysed using 500 μl/well of a lysis buffer (150 mM NaCl, 1 mM EDTA, 1% Nonidet P-40, 5% glycerol, 25 mM tris-HCl, pH 7.5, protease inhibitor added), and the lysed cells were centrifuged at 10,000×g and 4° C. for 10 minutes to extract proteins. […]
# 14-3-3β and PPARγ2 = molecular target: T2, 14-3-3β and PPARγ2 (Homo sapiens, UniProt P37231); assay: Competitive GST-pull down assay, 14-3-3β / PPARγ2 binding under 14-3-3γ overexpression; conditions: as expression amount of 14-3-3γ was increased (HA-14-3-3γ DNA 2 and 4 μg); 10 μM pioglitazone; FIG. 5A
# T2 construct: expressed in transfected cells; host or cells: HEK-293T
# T2 sequence (P37231 1-505): T1 sequence (P37231 1-505)
# T2 sequence (P31946 1-246 partner): T1 sequence (P31946 1-246 partner)
# Description: as §1, §2
binding between 14-3-3γ and PPARγ2 (14-3-3γ and PPARγ2),binding between 14-3-3β and PPARγ2 (14-3-3β and PPARγ2),Substance
reduced,–,"14-3-3β: 14-3-3 isoform protein, overexpressed by DNA transfection; regulating factor that increases transcriptional activity of PPARγ2"
–,reduced,"14-3-3γ: 14-3-3 isoform protein, overexpressed by DNA transfection; regulating factor that decreases transcriptional activity of PPARγ2"
